# Data reported in US6379938B1, “Epoxide hydrolase” (Puratos N.V., priority 1997, dated 2002).
# B1: cis-epoxysuccinate hydrolase: 253 amino acid, 28 kDa epoxide hydrolase of Rhodococcus rhodochrous LMGP-18079, expressed in E. coli from plasmid pREHXS (protein)
# chain: MQLNNANDNTQFRALLFDVQGTLTDFRSTLIEHGLSILGDRVDRELWEELVDQWRGCYRDELDSLVKQEKWRSVRAVYRDSLINLLAKFSDSFCATSAEVELLTDGWERLRSWPDVPSGLEQLRSKYLVAALTNADFSAIVNVGRSAKLQWDAVLSAQLFGAYKPHRSTYEGAATLLGIAPSEILMVASHAYDLEAAREVGAGTAYVRRPLEYGPTGRTEDVPDGRFDFLVDSISELADQLGCPRLGGTAGID
# Experiments:
# [1] = Determination of the cis-epoxysuccinate-hydrolase activity (L-tartaric acid formed, HPLC); type: biochemical; conditions: cells of Escherichia coli DH10B containing plasmid pREHXS, overnight culture; 37° C., pH 8.0; activity = amount of L(+)-tartaric acid formed in a day by 1 gram of dried cells
# Protocol: The enzymatic reaction is performed at 37° C. in a final volume of 9.3 ml that contains the following components: 0.7 ml of 0.1N Tris.HCl buffer pH 8.0, 2.6 ml of a 1.14% Triton X-100 solution, 5.0 ml of a 30% sodium cis-epoxysuccinate solution and 1.0 ml of the cell suspension. The reaction is stopped by diluting the mixture between 100 and 500 times with H2O acidified to pH 2.2 with H3PO4.
# The amount of L-tartaric acid formed during the reaction is determined by HPLC at room temperature on a Vydac C18 column (cat no. 201HS3410) with a flow rate between 400 and 600 μl/min and a sample volume of 20 μl. The solvent is the same as the one used to dilute the samples. The detection of cis-epoxysuccinate and tartaric acid occurs at 210 nm.
# Activity is expressed as the amount of L(+)-tartaric acid formed in a day by 1 gram of dried cells.
# The Escherichia coli strain DH10B containing the plasmid pREHXS is cultivated overnight in 2×LB medium (Yeast Extract 1%, Bacto-tryptone 2%, NaCl 2%) supplemented with 100 μg/ml of ampicillin. The same strain with the pBluescriptSK(+) plasmid without insert is used as a control.
# The activity of the cis-epoxysuccinate hydrolase is determined in the cells collected from the two cultures using the protocol described in example 1. No activity could be detected in the control. About 150 units is present in the strain expressing the cis-epoxysuccinate gene.
# [2] = pH activity profile of the epoxide hydrolase (FIG. 5); type: biochemical; conditions: pH between 7.0 and 10 (FIG. 5)
# Text: The isolated and purified epoxide hydrolase amino acid sequence according to the invention is also characterised by an advantageous pH activity profile having a high enzymatic activity (more than 80% of the optimum enzyme activity) between 7.0 and 10, preferably between 7.5 and 9.5 (see FIG. 5).
# FIG. 5 represents the relative enzymatic activity of the enzyme according to the invention.
# This enzymatic activity is advantageously maintained constant at a pH higher than 7, preferably at a pH comprised between 7.0 and 10, more preferably at a pH comprised between 7.5 and 9.5.
molecule,measurement,setting,value
B1,activity of the cis-epoxysuccinate hydrolase,[1],About 150 units
same,enzymatic activity relative to the optimum enzyme activity,[2],more than 80%
